Measured values: US20080207488A1, “Method for Detecting Peptides Comprising a Cross-B Structure” (priority 2005, published 2008)

Columns and labels:
[1] = target: T1, tPA (Homo sapiens, UniProt P00750); assay: Plasminogen-activation assay (tPA-mediated Plg to Pls, S-2251); assay type: biochemical; details: 100 μg ml^−1 protein
T1 construct: purchased Boehringer-Ingelheim (Actilyse, Alteplase)
Procedure: Plasmin (Pls) activity was assayed as described^7. Peptides and proteins that were tested for their stimulatory ability were regularly used at 100 μg ml^−1. […] Chromogenic substrate S-2251 (Chromogenix, Instrumentation Laboratory SpA, Milano, Italy) was used to measure Pls activity. Conversion of zymogen factor XII (#233490, Calbiochem, EMD Biosciences, Inc., San Diego, Calif.) to proteolytically active factor XII (factor XIIa) was assayed by measurement of the conversion of chromogenic substrate Chromozym-PK (Roche Diagnostics, Almere, The Netherlands) by kallikrein. Chromozym-PK was used at a concentration of 0.3 mM. Factor XII, human plasma prekallikrein (#529583, Calbiochem) and human plasma cofactor high-molecular weight kininogen (#422686, Calbiochem) were used at concentrations of 1 μg ml^−1. […] Assays were performed using microtiter plates (Costar, Cambridge, Mass., USA). Peptides and proteins were tested for their ability to activate factor XII. […] The conversion of Chromozym-PK was recorded kinetically at 37° C. for at least 60 minutes. […] With S-2222, activation of factor XII in plasma was measured, using 60% v/v plasma, diluted with substrate and H2O with or without potential cofactor. Furthermore, auto-activation of factor XII was measured by incubating 53 μg ml^−1 purified factor XII in 50 mM Tris-HCl buffer pH 7.5 with 1 mM EDTA and 0.001% v/v Triton-X100, with S-2222 and H2O with or without potential cofactor.
Formulated protein therapeutics were obtained from the local hospital pharmacy and were used as supplied by the manufacturers. […] Enhancement in fluorescence of ThT and Congo red was measured with all formulated protein therapeutics. […]
To prepare structurally altered ovalbumin (OVA) with amyloid cross-β structure conformation, purified OVA (Sigma, A-7641, lot 071k7094) was heated to 85° C. […] Native OVA (nOVA) and heat-denatured OVA (dOVA) were tested in the ThT fluorescence assay and in the Plg-activation assay. In the fluorescence assay and in the Plg-activation assay, 25 and 100 μg ml^−1 nOVA and dOVA were tested, respectively. […]

[2] = ThT fluorescence of LPS-protein mixtures; assay type: physicochemical
Procedure: (§1) Fluorescence of ThT-protein/peptide adducts was measured as follows. […] Fluorescence was measured at 485 nm upon excitation at 435 nm. Background signals from buffer, buffer with ThT and protein/peptide solution without ThT were subtracted from corresponding measurements with protein solution incubated with ThT. […] Fluorescence was measured in triplicate on a Hitachi F-4500 fluorescence spectrophotometer (Ltd., Tokyo, Japan).
Subsequently, the ability to enhance ThT fluorescence was determined with 40× diluted solution, as described above. […]

[3] = ThT fluorescence of CpG-ODN-protein mixtures; assay type: physicochemical; details: for increased ThT fluorescence: 1 mg ml^−1 protein exposed to 21.4 μg ml^−1 CPG-ODN (FIG. 4F); for increase in ThT fluorescence: 1 mg ml^−1 protein, 30 min. at room temperature (FIG. 4D, E)
Procedure: as §1
Enhancement of ThT fluorescence was measured similarly as described above. […]

[4] = system: Balb/c mice; assay: Immunization of Balb/c mice with ovalbumin and amyloid-like ovalbumin; assay type: in vivo; details: without adjuvant
Procedure: Eight to ten weeks old female Balb/c mice are immunized with OVA according to two immunization regimes (Central Animal Laboratories, Utrecht University, The Netherlands). Pre-immune serum was collected prior to the immunizations. In one regime two groups of five mice were subcutaneously injected five consecutive days per week, for three consecutive weeks. Doses comprised 10 μg native OVA or heat-denatured OVA for each injection. Alternatively, according to the second protocol, three groups of five mice were injected once intraperitoneally with doses comprising 5 μg nOVA, 5 μg OVA or 5 μg native OVA mixed 1:1 with complete Freund's adjuvant (CFA). Each week, blood was taken. After three weeks, a second dose was given. Incomplete Freund's adjuvant (IFA) was used instead of CFA. Blood was taken after one week after the start of the immunization. Antibody titers in sera were determined and sera were analyzed for the presence of cross-β structure conformation specific antibodies. For this purpose, nOVA was coated onto wells of 96-wells ELISA plates and incubated with dilution series of sera. Sera of the groups of five mice were pooled prior to the analyses. Plates were washed and subsequently incubated with peroxidase-conjugated rabbit anti-mouse immunoglobulins (RAMPO, P0260, DAKOCytomation, Glostrup, Denmark). Plates were subsequently developed with tetramethylbenzidine (TMB) substrate. […]

[5] = target: T2, human fibronectin finger 4,5 (Fn F4,5) fragment (Homo sapiens, UniProt P02751); assay: ELISA, binding of fibronectin F4,5 to coated (mis)folded proteins; details: coated protein, FIG. 7D-H
T2 construct: human fibronectin finger 4,5 (Fn F4,5) fragment; made in house; host or cells: HEK293E cells, transient transfection, protein purified from the medium
Procedure: The plates were blocked using Blocking reagent (Roche 1112589). A dilution series of the protein of interest was applied to the coated proteins and wells were subsequently washed using TBS-T (50 mM Tris pH 7.3, 150 mM NaCl and 0.1% Tween20). Bound protein is detected by the FLAG-tag using 1:3000 anti-FLAG-HRP (Sigma A-8592) in PBS-T, or by 1:1000 Ni-NTA-HRP (Qiagen 34530) in PBS-T. The HRP reaction Is performed using the TMB substrate (Biosource 4501103 or Tebu Bio 101TMB100-500), stopped using 10% H2SO4 and absorbance was measured at 450 nm.

[6] = system: anti-β2GPI auto-antibodies; assay: Interference with binding of anti-β2GPI autoantibodies to immobilized β2GPI; parameters: species or system human; details: antibodies from Anti-phospholipid syndrome patients
Procedure: When plasma derived β2GPI is coated onto hydrophilic ELISA plates, anti-β2GPI auto-antibodies isolated from plasma of antiphospholipid syndrome auto-immune patients can bind^14. To study the influence of co-incubations of the coated β2GPI with the antibodies together with plasma β2GPI or recombinant β2GPI, concentration series of β2GPI were added to the patient antibodies. Subsequently, binding of the antibodies to coated β2GPI was determined.

[7] = ThT fluorescence of β2GPI with or without CL vesicles or DXS500k; assay type: physicochemical
Procedure: ThT fluorescence of β2GPI was measured as follows. […] CL vesicles were prepared according to an established procedure. Briefly, CL was dried under a stream of nitrogen. The lipids were resuspended to a concentration of 10 mg ml^−1 in 25 mM Tris-HCl, pH 7.3, 150 mM NaCl by vigorous agitation, using a vortex. In the ThT fluorescence assay, fluorescence of β2GPI in buffer, of CL or DXS500k in buffer, of buffer and ThT alone, and of β2GPI-CL adducts and β2GPI-DXS500k adducts, with or without ThT, was recorded as described above (section ThT fluorescence). In addition, TEM images were recorded with CL, β2GPI from human plasma, with or without CL, and with recombinant β2GPI, as described^1.

[8] = 1 mg ml^−1 protein exposed to 600 μg ml^−1 LPS (FIG. 4C)

T1 sequence (P00750 36-562): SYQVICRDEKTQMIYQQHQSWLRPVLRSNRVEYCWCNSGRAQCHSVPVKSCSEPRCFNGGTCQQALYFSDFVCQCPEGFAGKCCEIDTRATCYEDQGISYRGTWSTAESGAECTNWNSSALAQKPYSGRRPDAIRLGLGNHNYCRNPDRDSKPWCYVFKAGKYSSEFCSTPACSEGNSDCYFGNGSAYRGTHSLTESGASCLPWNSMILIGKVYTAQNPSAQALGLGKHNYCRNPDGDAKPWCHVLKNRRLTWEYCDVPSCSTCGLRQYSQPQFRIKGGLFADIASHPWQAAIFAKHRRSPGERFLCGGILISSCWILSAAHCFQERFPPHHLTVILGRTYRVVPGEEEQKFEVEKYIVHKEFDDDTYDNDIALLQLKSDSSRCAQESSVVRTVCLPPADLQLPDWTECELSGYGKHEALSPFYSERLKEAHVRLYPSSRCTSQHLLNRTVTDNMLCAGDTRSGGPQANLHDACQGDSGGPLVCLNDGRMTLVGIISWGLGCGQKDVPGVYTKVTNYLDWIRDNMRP
T2 sequence (P02751 182-276 limits assumed): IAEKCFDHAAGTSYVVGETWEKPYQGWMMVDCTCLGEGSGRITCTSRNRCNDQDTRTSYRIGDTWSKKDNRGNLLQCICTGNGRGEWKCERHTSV

B1: endostatin: protein therapeutic endostatin (EntreMed, Inc.) (protein)
chain: HSHRDFQPVLHLVALNSPLSGGMRGIRGADFQCFQQARAVGLAGTFRAFLSSRLQDLYSIVRRADRAAVPIVNLKDELLFPSWEALFSGSEGPLKPGARIFSFDGKDVLRHPTWPQKSVWHGSDPNGRRLTESYCETWRTEAPSATGQASSLLGGRLLGQSAASCHHAYIVLCIENSFMTASK
Q: For B1, which “stimulation of tPA-mediated conversion of Plg to Pls” value [1] is on record?
A: absence of tPA activating properties

Q: And the ThT fluorescence enhancement ([2]; 200 μg ml^−1 LPS (FIG. 4D, E))?
A: approximately 8 times

Q: What about the ThT fluorescence enhancement ([2]; 400 μg ml^−1 LPS (FIG. 4D, E)) of the same molecule?
A: ~20 times

Q: What about the ThT fluorescence enhancement ([2]; 600 μg ml^−1 LPS (FIG. 4D, E)) of the same molecule?
A: ~26 times

Q: And the ThT fluorescence enhancement [2, 8]?
A: approximately 10 times

Q: What about the “increased ThT fluorescence” value [3] of the same molecule?
A: approximately 10 factor

Q: And the “increase in ThT fluorescence” value ([3]; 10.4 μg ml^−1 CPG-ODN)?
A: ~39 times

Q: What about the “increase in ThT fluorescence” value ([3]; 21.7 μg ml^−1 CPG-ODN) of the same molecule?
A: ~56 times

B2: nOVA: native chicken ovalbumin (protein)
chain: GSIGAASMEFCFDVFKELKVHHANENIFYCPIAIMSALAMVYLGAKDSTRTQINKVVRFDKLPGFGDSIEAQCGTSVNVHSSLRDILNQITKPNDVYSFSLASRLYAEERYPILPEYLQCVKELYRGGLEPINFQTAADQARELINSWVESQTNGIIRNVLQPSSVDSQTAMVLVNAIVFKGLWEKAFKDEDTQAMPFRVTEQESKPVQMMYQIGLFRVASMASEKMKILELPFASGTMSMLVLLPDEVSGLEQLESIINFEKLTEWTSSNVMEERKIKVYLPRMKMEEKYNLTSVLMAMGITDVFSSSANLSGISSAESLKISQAVHAAHAEINEAGREVVGSAEAGVDAASVSEEFRADHPFLFCIKHIATNAVLFFGRCVSP
Q: For B2, which “anti-nOVA antibody titers in pooled sera” value [4] is on record?
A: Titers were also obtained

B3: reduced and alkylated OVA: reduced and alkylated ovalbumin (protein)
chain: GSIGAASMEFCFDVFKELKVHHANENIFYCPIAIMSALAMVYLGAKDSTRTQINKVVRFDKLPGFGDSIEAQCGTSVNVHSSLRDILNQITKPNDVYSFSLASRLYAEERYPILPEYLQCVKELYRGGLEPINFQTAADQARELINSWVESQTNGIIRNVLQPSSVDSQTAMVLVNAIVFKGLWEKAFKDEDTQAMPFRVTEQESKPVQMMYQIGLFRVASMASEKMKILELPFASGTMSMLVLLPDEVSGLEQLESIINFEKLTEWTSSNVMEERKIKVYLPRMKMEEKYNLTSVLMAMGITDVFSSSANLSGISSAESLKISQAVHAAHAEINEAGREVVGSAEAGVDAASVSEEFRADHPFLFCIKHIATNAVLFFGRCVSP
Q: For B3, which “affinity of fibronectin F4,5 (detection anti-FLAG HRP)” value [5] is on record?
A: acted as its native control

B4: recombinant β2GPI: recombinant human β2-glycoprotein I made using insect cells (protein)
chain: GRTCPKPDDLPFSTVVPLKTFYEPGEEITYSCKPGYVSRGGMRKFICPLTGLWPINTLKCTPRVCPFAGILENGAVRYTTFEYPNTISFSCNTGFYLNGADSAKCTEEGKWSPELPVCAPIICPPPSIPTFATLRVYKPSAGNNSLYRDTAVFECLPQHAMFGNDTITCTTHGNWTKLPECREVKCPFPSRPDNGFVNYPAKPTLYYKDKATFGCHDGYSLDGPEEIECTKLGNWSAMPSCKASCKVPVKKATVVYQGERVKIQEKFKNGMLHGDKVSFFCKNKEKKCSYTEDAQCIDGTIEVPKCFKEHSSLAFWKTDASDVKPC
Q: For B4, which “stimulation of tPA-mediated conversion of Plg to Pls” value [1] is on record?
A: stimulate tPA-mediated conversion of Plg to Pls

Q: And the ThT fluorescence enhancement [2, 8]?
A: ~4 times

Q: And the “increased ThT fluorescence” value [3]?
A: approximately 5 factor

Q: And the “inhibition of binding of anti-β2GPI auto-antibodies to immobilized β2GPI” value [6]?
A: efficiently inhibits binding

Q: What about the “ThT fluorescence after exposure to CL vesicles or DXS” value ([7]; 25 μg ml^−1 β2GPI, 100 μM CL vesicles or 250 μg ml^−1 DXS) of the same molecule?
A: increased fluorescence of ThT

Q: What about the “ThT fluorescence signal of β2GPI preparation” value ([7]; without CL or DXS500k) of the same molecule?
A: higher ThT fluorescence signal
